Measurements published in the supplement of paper PMC9170038.

Test system: MS2 coat protein
Experiment: apparent KD of MS2 coat protein; designed switch direction (-1 OFF switch, 1 ON switch): -1; higher = weaker reporter binding
How it was run: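 The apparent KD reported per design is the median over clusters of curve fits to normalised cluster fluorescence. The RNA switches were transcribed on Illumina chips by stalled E. coli RNA polymerase. SNAP-549-labelled MS2 coat protein was titrated from 0.7 or 1.5 nM, doubling up to 3 µM, in Tris-HCl pH 7.5 buffer containing KCl, MgCl2, BSA, DTT, tRNA and Tween-20, with no input, 200 uM small-molecule ligand, or an oligonucleotide input.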

[1] = Eterna round: R95, input ligand: microRNA oligo, concentration not stated
[2] = Eterna round: R95, input ligand: FMN 200 uM
[3] = Eterna round: R95, input ligand: none

Sequence | apparent KD of MS2 coat protein [1] | apparent KD of MS2 coat protein (input ligand: FMN 200 uM) | apparent KD of MS2 coat protein (input ligand: none) | further results
AGAAAGGAAGGAUAUACAAGAAAGCUGGGCAACGUCUCAGAACAUGAGGAUCACCCAUGUAGAAGGUCCAGGAA [Bienqura] (puzzle: Exclusion 2) | 22.6 nM | – | – | –
UUAAUAAGUGUGAGGAUAUGCUGGUCCUUGGAUCAGCAGAAGGCACAUGAGGAUCACCCAUGUACAAUAUAUUA [Mat - Exclusion 4 - JL Mod - D31] (puzzle: Brourd's mod of Exclusion 4) | 33.9 nM | – | – | –
AUAAUGUAAGGAUAUCAGUCGUACAGCCUCGGCUGUACGACUGAGAAGGUACAUGAGGAUCACCCAUGUGAUCA [E4/8-A2] (Eterna round: R97, puzzle: Exclusion 4) | – | 98.4 nM | 1200 nM | –
CAACGUAGUAAGGAUAUCCGGCAAAAGGCUACAGGAGAAGGUACUACAUGAGGAUCACCCAUGUGGAACUGUAA [EX6 B.7] (Eterna round: R97, puzzle: Exclusion 6) | – | 16.8 nM | 16.1 nM | –
AAACGGCAGGGAGGAUAUGCCUACCUGGGUCGUCUUCAAACAUGAGGAUCACCCAUGUAGUCGACGCAGAAGGCCCUCAAAGCC [Ontiis] (Eterna round: R96, puzzle: Exclusion NG 2) | – | 38.7 nM | 12.7 nM | apparent KD of MS2 coat protein (input ligand: microRNA oligo, concentration not stated): 8.22 nM
CGUCAGUGAGGAUAUGGUAACGUUUACAUGAGGAUCACCCAUGUUUCAUGGGACUAGAGACUAGAAGGUACUGACG [EX5 #42] (Eterna round: R97, puzzle: Exclusion 5) | – | 189 nM | 132 nM | –
CUUCGACAUGAGGAUCACCCAUGUCAGGAUAUUGUGUAUCGGGUGUUGGACGGAUAGGCAAGAAGGGAUGUGUG [LRO-Excl1-05] (puzzle: Exclusion 1) | 27.8 nM | – | – | –
UUUUUACAUGAGGAUCACCCAUGUCAGGAUAUUCUUAUAUUUUAUUAUUUUAUUUUUUGAAGAAGGGACUAUUA [My solution] (puzzle: Exclusion 1) | 99.4 nM | – | – | –
AAGUACCGUCACGAUAGUGAUGGUACAACAAGCAUGUAAACAUGAGGAUCACCCAUGUCCUCAUAUGCUCGUCUUAU [Sensor 3 - 64] (puzzle: Sensor v3, turn-off variant 2) | 34.3 nM | – | – | apparent KD of MS2 coat protein [2]: 375 nM; apparent KD of MS2 coat protein [3]: 566 nM
GCCGAAUAAGUGAGGAUAUACCUAUGGAUACAUAGGUAGAAGGCACAUGAGGAUCACCCAUGUACCUCAACGGC [JL-BMX4-4.16 Eli mod] (Eterna round: R97, puzzle: Brourd's mod of Exclusion 4) | – | 34.5 nM | 14.8 nM | –
GUUUAGUGAGGAUAUGUGGCUUCGAUCGUGCGCGGUCUGCUACAGAAGGCACAUGAGGAUCACCCAUGUUCCUC [salish99_ex4_r4_308] (Eterna round: R97, puzzle: Exclusion 4) | – | 579 nM | 123 nM | –
UUAGCGUAUGUAAGGAUAUGCUGGUCUAAUGAUCAGCAGAAGGUACAUGAGGAUCACCCAUGUGUAUUCGUUAU [Mod of JL 7 - Jieux - Brourd's mod of Exclusion 4] (Eterna round: R97, puzzle: Brourd's mod of Exclusion 4) | – | 75.9 nM | 18.4 nM | –
UAUUAGCAAGCCAGAUCCCACAUGAGGAUCACCCAUGUGCUCGUCUUAUAAGGUACUGUGACGAAAGUCACGGUACC [Sensor 3, v1 - 93] (puzzle: Sensor v3, turn-off variant 1) | 1120 nM | – | – | apparent KD of MS2 coat protein [2]: 137 nM; apparent KD of MS2 coat protein [3]: 184 nM
UAGAAUCGAGGAUAUACAUGAGGAUCACCCAUGUGUGGCCAUUUGGUGUGGUCGUCAGGUAGAAGGCGAUUACA [Exclusion 3 - Mod of Jieux's Gilly Gone Silly 23 v.5] (puzzle: Exclusion 3) | 141 nM | – | – | –
CUGGUUGUCGAGGAUAUGCACCGGCUCGCUGACGCAGAAGGCGACACAUGAGGAUCACCCAUGUCGGUUCGCGU [salish99_ex6_r004_438] (Eterna round: R97, puzzle: Exclusion 6) | – | 29 nM | 19.1 nM | –
